From patent US20210332152A1

How the values were obtained:
human IgG (human) = assay: SPR (BIAcore T200), peptide immobilised on sensor chip, human IgG injected
[1] = biological target: human serum-derived γ-globulin (Sigma-Aldrich) (human); assay: column chromatography; 0.5 mg synthetic peptide immobilised on NHS-activated column, 1 mg/mL γ-globulin fed, 10% breakthrough

- Kd (human IgG (human)): 14 nM
- koff (human IgG (human)): 0.0048 s⁻¹
- kon (human IgG (human)): 330000 M⁻¹ s⁻¹
- dynamic binding capacity (DBC) [1]: 6.9 mg/mL-column
B1: peptide (amino acid sequence: SEQ ID NO: 18) prepared by chemical synthesis (peptide)
peptide: GPDCAYHRGELVWCTFH
